From US20240166720A1 (Janssen / Centocor, published 2024)

B1: TPP000182983 (Fc fusion)
chain: HTCPPCPAPEAAGGPSVFLFPPKPKDTLMISRTPEVTCVVVSVSHEDPEVKFNWYVDGVEVHNAKTKPREEQYNSTYRVVSVLTVLHQDWLNGKEYKCKVSNKALPAPIEKTISKAKGQPREPQVYTLPPSREEMTKNQVSLTCLVKGFYPSDIAVEWESNGQPENNYKTTPPVLDSDGSFFLYSKLTVDKSRWQQGNVFSCSVMHEALHNHYTQKSLSLSPGGGGGSNPQIAAHVISEASSKTTSVLQWAEKGYYTMSNNLVTLENGKQLTVKRQGLYYIYAQVTFCSNREASSQAPFIASLCLKSPGRFERILLRAANTHSSAKPCGQQSIHLGGVFELQPGASVFVNVTDPSQVSHGTGFTSFGLLKLGGGSGGGSGGGSNPQIAAHVISEASSKTTSVLQWAEKGYYTMSNNLVTLENGKQLTVKRQGLYYIYAQVTFCSNREASSQAPFIASLCLKSPGRFERILLRAANTHSSAKPCGQQSIHLGGVFELQPGASVFVNVTDPSQVSHGTGFTSFGLLKLGGGSGGGSGGGSNPQIAAHVISEASSKTTSVLQWAEKGYYTMSNNLVTLENGKQLTVKRQGLYYIYAQVTFCSNREASSQAPFIASLCLKSPGRFERILLRAANTHSSAKPCGQQSIHLGGVFELQPGASVFVNVTDPSQVSHGTGFTSFGLLKL
notes: Single chain trimeric CD40L fused to the C-terminus of the Fc; also called C4LW16
B2: TPP000161222 (Fc fusion)
chain: IAAHVISEASSKTTSVLQWAEKGYYTMSNNLVTLENGKQLTVKRQGLYYIYAQVTFCSNREASSQAPFIASLCLKSPGRFERILLRAANTHSSAKPCGQQSIHLGGVFELQPGASVFVNVTDPSQVSHGTGFTSFGLLKLEGKSSGSGSQIAAHVISEASSKTTSVLQWAEKGYYTMSNNLVTLENGKQLTVKRQGLYYIYAQVTFCSNREASSQAPFIASLCLKSPGRFERILLRAANTHSSAKPCGQQSIHLGGVFELQPGASVFVNVTDPSQVSHGTGFTSFGLLKLEGKSSGSGSQIAAHVISEASSKTTSVLQWAEKGYYTMSNNLVTLENGKQLTVKRQGLYYIYAQVTFCSNREASSQAPFIASLCLKSPGRFERILLRAANTHSSAKPCGQQSIHLGGVFELQPGASVFVNVTDPSQVSHGTGFTSFGLLKLVERKSCVECPPCPAPPVAGPSVFLFPPKPKDTLMISRTPEVTCVVVDVSHEDPEVQFNWYVDGVEVHNAKTKPREEQFNSTFRVVSVLTVVHQDWLNGKEYKCKVSNKGLPAPIEKTISKTKGQPREPQVYTLPPSREEMTKNQVSLTCLVKGFYPSDIAVEWESNGQPENNYKTTPPMLDSDGSFFLYSKLTVDKSRWQQGNVFSCSVMHEALHNHYTQKSLSLSPGK
notes: This protein had only 38.76% monomer after protein A; also called C40W33; JNJ75347415

Tests used:
[1] = biological target: native CD40 receptor on HEK-Blue CD40L reporter cells (UniProt P25942 21-277, limits assumed); test: cell-based or functional assay
native CD40 receptor on HEK-Blue CD40L reporter cells, sequence (P25942 21-277 limits assumed): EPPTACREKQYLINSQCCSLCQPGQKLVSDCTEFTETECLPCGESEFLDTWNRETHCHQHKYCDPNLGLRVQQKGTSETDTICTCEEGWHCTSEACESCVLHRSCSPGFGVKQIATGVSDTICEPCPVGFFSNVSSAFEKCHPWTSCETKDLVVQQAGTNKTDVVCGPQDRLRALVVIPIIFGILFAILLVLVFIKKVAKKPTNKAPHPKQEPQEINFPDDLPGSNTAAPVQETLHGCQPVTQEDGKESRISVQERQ

[2] = biological target: T1, recombinant CD40 receptor (hu CD40) (human, UniProt P25942 21-193, limits assumed, biotinylated in the MSD assay (site not stated)); test: MSD electrochemiluminescence plate assay: biotinylated CD40 (10 ug/ml) on streptavidin plates, three-fold dilutions of the test article, anti-human Fc detection (Example 4)
T1 construct: also called biotinylated CD40
T1 sequence (P25942 21-193 limits assumed): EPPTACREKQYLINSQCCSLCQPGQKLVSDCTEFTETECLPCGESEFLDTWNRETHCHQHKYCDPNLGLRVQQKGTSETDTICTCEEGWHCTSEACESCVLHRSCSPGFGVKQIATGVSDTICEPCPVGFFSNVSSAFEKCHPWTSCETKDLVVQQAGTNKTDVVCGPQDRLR
Protocol: Streptavidin sensor plates were coated with 10 ug/ml of biotinylated CD40 overnight at 4° C. The plates were washed 3× with PBS with 0.05% Tween 20 (PBST). Three-fold dilutions series of the test articles were prepared in PBS with 0.2% bovine serum albumin and 50 ul was applied to the plates for 1 hour at RT with shaking. Plates were washed 3× with PBST and anti-human Fc detection reagent at 2 ug/ml final concentration was applied for 1 hour at RT with shaking. The plates were washed 3× with PBST and 150 ul of 1× read buffer was added to the plates and data was collected on MSD instrument. Data was imported into […] Prism 8 software and analyzed and plotted based on the results three separate experiments.

| Binder | HEK-Blue reporter assay activity, fold against TPP000161222 [1] [fold] | EC50 (read off the curve) [2] [µg/mL] | binding result [2] |
| --- | --- | --- | --- |
| B1 | 100 | ~0.09 |  |
| B2 |  |  | binds |
